# Where a chain is given by its changes, count along the chain named. In names and notes the source's numbering stands.
# B1: Yen1 SIM1-2ΔΔ (D635A D636A D637A V675A E677A), HA-tagged, purified (natural protein, S. cerevisiae, UniProt P40028 1-759, looked up)
# chain: MGVSQIWEFLKPYLQDSRIPLRKFVIDFNKSQKRAPRIAIDAYGWLFECGFIQNIDISARSRSRSRSPTRSPRDSDIDSSQEYYGSRSYTTTGKAVINFISRLKELLSLNVEFLLVFDGVMKPSFKRKFNHEQNATTCDDEKEYYSSWEQHVKNHEVYGNCKGLLAPSDPEFISLVRKLLDLMNISYVIACGEGEAQCVWLQVSGAVDFILSNDSDTLVFGGEKILKNYSKFYDDFGPSSITSHSPSRHHDSKESFVTVIDLPKINKVAGKKFDRLSLLFFSVLLGADYNRGVKGLGKNKSLQLAQCEDPNFSMEFYDIFKDFNLEDLTSESLRKSRYRLFQKRLYLYCKDHSVELFGRNYPVLLNQGSFEGWPSTVAIMHYFHPIVQPYFDEEVLSDKYINMAGNGHYRNLNFNELKYFLQSLNLPQISSFDKWFHDSMHEMFLLREFLSIDESDNIGKGNMRITEEKIMNIDGGKFQIPCFKIRYTTFLPNIPISSQSPLKRSNSPSRSKSPTRRQMDIMEHPNSLWLPKYLIPQSHPLVIQYYETQQLIQKEKEKKGKKSNKSRLPQKNNLDEFLRKHTSPIKSIGKVGESRKEILEPVRKRLFVDTDEDTSLEEIPAPTRLTTVDEHSDNAAASLIFVDEITNSQSVLDSSPGKRIRDLTQDEQVDVWKDAIAISPIKKSRTTNAEKNPPESGLKSRSSITINARLQGTKMLPPNLTAPRLEREHSSVLDQLVTDAQDTVDRFVACDSDSSSTIE
# B2: Yen1 SIM2Δ (V675A E677A), HA-tagged, purified (natural protein, S. cerevisiae, UniProt P40028 1-759, looked up)
# chain: B1 chain with A635D, A636D, A637D
# B3: Yen1 SIM1Δ (D635A D636A D637A), HA-tagged, purified (natural protein, S. cerevisiae, UniProt P40028 1-759, looked up)
# chain: B1 chain with A675V, A677E
# Target: GST-Smt3 (S. cerevisiae, UniProt Q12306 1-101 = SUMO)
# Sequence (Q12306 whole entry): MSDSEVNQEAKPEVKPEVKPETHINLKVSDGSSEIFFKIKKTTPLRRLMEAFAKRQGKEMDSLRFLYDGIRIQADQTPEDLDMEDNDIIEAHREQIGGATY
# Assay: cell-based or functional assay
row,"fraction of SUMOylated Yen1 recovered by denaturing Ni-NTA pull-down of 6xHis-Smt3 from cells grown in 0.3% MMS, relative to wild-type Yen1",Binder
1,1%,B1
2,~20%,B2
3,5%,B3

# Source: publication PMC8986097, “SUMO-mediated recruitment allows timely function of the Yen1 nuclease in mitotic cells” (PLoS Genetics, 2022)
